Consider two molecules from US20200199202A1 (published 2020).

One test deals with NHP NPC1-C (Colobus guereza). Description: BLI; pH 5.5.
For test [1], the target named is T1, soluble human NPC1 domain C protein (UniProt O15118 372-622).
T1 chain: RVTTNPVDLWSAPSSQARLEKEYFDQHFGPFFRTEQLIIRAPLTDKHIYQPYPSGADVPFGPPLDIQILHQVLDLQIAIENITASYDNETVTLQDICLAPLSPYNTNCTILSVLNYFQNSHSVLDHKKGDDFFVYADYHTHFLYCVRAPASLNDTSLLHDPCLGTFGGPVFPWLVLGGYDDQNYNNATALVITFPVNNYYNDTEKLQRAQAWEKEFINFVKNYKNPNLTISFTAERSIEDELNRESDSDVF
Briefly: BLI; pH 7.5.

Test [2] deals with T1, soluble human NPC1 domain C protein. Briefly: BLI; pH 5.5. For orientation: Biolayer interferometry detects binding as a change in optical thickness at a sensor tip.
The target is the same in test [3]. Briefly: BLI; pH 7.5.

B1: 548 (antibody, V domains shown)
VH: EVQLQQSGAELVKPGASVKLSCTASGFNIKDTYMHWVKQRPEEGLEWIGRIDPADGNTEYVPKFQGKATITADTFSNTVYLQLSGLTSEDTAVYYCSRGYYWGQGTTLTVSS
VL: DIQMTQSPASLSASVGETVTITCRASENIYSYLAWYQQKQGKSPQLLVYNAKTLAEGVPSRFSGSGSGTQFSLKINSLQPEDFGIYYCQHHYGSPWAFGGGTKLEIK
By Kd is commonly meant a measure of binding affinity in units of concentration. A lower Kd goes with higher affinity. As for B1, the Kd with NHP NPC1-C was < 1 pM.

B2: mAb 548 (anti-human NPC1 domain C monoclonal antibody) (antibody, V domains shown)
VH: EVQLQQSGAELVKPGASVKLSCTASGFNIKDTYMHWVKQRPEEGLEWIGRIDPADGNTEYVPKFQGKATITADTFSNTVYLQLSGLTSEDTAVYYCSRGYYWGQGTTLTVSS
VL: DIQMTQSPASLSASVGETVTITCRASENIYSYLAWYQQKQGKSPQLLVYNAKTLAEGVPSRFSGSGSGTQFSLKINSLQPEDFGIYYCQHHYGSPWAFGGGTKLEIK
With B2, the dissociation constant Kd in test [1], in test [2] and in test [3] was < 1 pM each time.
